According to patent US20240109972A1, “ANTIBODY AND TAXANE COMBINATION THERAPY” (Genmab A/S, priority 2020, published 2024):

Assay: GEN1046 in combination with docetaxel in metastatic NSCLC subjects, adverse effects
Type: in vivo, human
Description: Docetaxel was administered at a dose of 55 mg/m^2 or 75 mg/m^2 depending on the number of prior Dose Limiting Toxicities observed. The maximum tested dose of docetaxel was be 75 mg/m^2.
Subjects with a histological or cytological diagnosis of non-squamous NSCLC must not have an EGFR-sensitizing mutation and/or ALK translocation/ROS1 rearrangement. EGFR sensitizing mutations are those mutations that are amenable to treatment with an approved TKI. Documentation of EGFR and ALK status should be available per local assessment.

[1] = GEN1046 in combination with Docetaxel

## GEN1046: PD-L1×4-1BB bispecific antibody: PD-L1-547-FEAL combined with CD137-009-HC7LC2-FEAR (SEQ ID NOs: 1, 5, 21, 19; 8, 12, 22, 20)
GEN1046 + 75 mg/m^2 Docetaxel
  Anemia Grade 5, GEN1046-related: 0
  Blood thyroid stimulating hormone abnormal Grade 1, GEN1046-related: 1
  Blood thyroid stimulating hormone abnormal Grade 2, GEN1046-related: 0
  Blood thyroid stimulating hormone abnormal Grade 3, GEN1046-related: 0
  Blood thyroid stimulating hormone abnormal Grade 4, GEN1046-related: 0
  Blood thyroid stimulating hormone abnormal Grade 5, GEN1046-related: 0
  Cough Grade 1, GEN1046-related: 1
  Cough Grade 2, GEN1046-related: 0
  Cough Grade 3, GEN1046-related: 0
  Cough Grade 4, GEN1046-related: 0
  Cough Grade 5, GEN1046-related: 0
  Dry mouth Grade 1, GEN1046-related: 1
  Dry mouth Grade 2, GEN1046-related: 0
  Dry mouth Grade 3, GEN1046-related: 0
  Dry mouth Grade 4, GEN1046-related: 0
  Dry mouth Grade 5, GEN1046-related: 0
  Dyspnea Grade 1, GEN1046-related: 1
  Dyspnea Grade 2, GEN1046-related: 2
  Dyspnea Grade 3, GEN1046-related: 0
  Dyspnea Grade 4, GEN1046-related: 0
  Dyspnea Grade 5, GEN1046-related: 0
  Fatigue Grade 1, GEN1046-related: 1
  Fatigue Grade 2, GEN1046-related: 2
  Fatigue Grade 3, GEN1046-related: 0
  Fatigue Grade 4, GEN1046-related: 0
  Fatigue Grade 5, GEN1046-related: 0
  Gastroesophageal reflux disease Grade 1, GEN1046-related: 1
  Gastroesophageal reflux disease Grade 2, GEN1046-related: 0
  Gastroesophageal reflux disease Grade 3, GEN1046-related: 0
  Gastroesophageal reflux disease Grade 4, GEN1046-related: 0
  Gastroesophageal reflux disease Grade 5, GEN1046-related: 0
  Hiccups Grade 1, GEN1046-related: 0
  Hiccups Grade 2, GEN1046-related: 1
  Hiccups Grade 3, GEN1046-related: 0
  Hiccups Grade 4, GEN1046-related: 0
  Hiccups Grade 5, GEN1046-related: 0
  Hyperglycemia Grade 1, GEN1046-related: 1
  Hyperglycemia Grade 2, GEN1046-related: 0
  Hyperglycemia Grade 3, GEN1046-related: 1
  Hyperglycemia Grade 4, GEN1046-related: 0
  Hyperglycemia Grade 5, GEN1046-related: 0
  Lipase increased Grade 1, GEN1046-related: 0
  Lipase increased Grade 2, GEN1046-related: 1
  Lipase increased Grade 3, GEN1046-related: 0
  Lipase increased Grade 4, GEN1046-related: 0
  Lipase increased Grade 5, GEN1046-related: 0
  Musculoskeletal chest pain Grade 1, GEN1046-related: 0
  Musculoskeletal chest pain Grade 2, GEN1046-related: 1
  Musculoskeletal chest pain Grade 3, GEN1046-related: 0
  Musculoskeletal chest pain Grade 4, GEN1046-related: 0
  Musculoskeletal chest pain Grade 5, GEN1046-related: 0
  Nausea Grade 1, GEN1046-related: 0
  Nausea Grade 2, GEN1046-related: 1
  Nausea Grade 3, GEN1046-related: 0
  Nausea Grade 4, GEN1046-related: 0
  Nausea Grade 5, GEN1046-related: 0
  Neutrophil count decreased Grade 1, GEN1046-related: 0
  Neutrophil count decreased Grade 2, GEN1046-related: 0
  Neutrophil count decreased Grade 3, GEN1046-related: 0
  Neutrophil count decreased Grade 4, GEN1046-related: 1
  Neutrophil count decreased Grade 5, GEN1046-related: 0
  Palmar plantar erythrodysesthesia Syndrome (PPE) Grade 1, GEN1046-related: 1
  Palmar plantar erythrodysesthesia Syndrome (PPE) Grade 2, GEN1046-related: 0
  Palmar plantar erythrodysesthesia Syndrome (PPE) Grade 3, GEN1046-related: 0
  Palmar plantar erythrodysesthesia Syndrome (PPE) Grade 4, GEN1046-related: 0
  Palmar plantar erythrodysesthesia Syndrome (PPE) Grade 5, GEN1046-related: 0
  Pruritus Grade 1, GEN1046-related: 1
  Pruritus Grade 2, GEN1046-related: 0
  Pruritus Grade 3, GEN1046-related: 0
  Pruritus Grade 4, GEN1046-related: 0
  Pruritus Grade 5, GEN1046-related: 0
  Total treated subjects with related TEAEs Grade 1, GEN1046-related: 4
  Total treated subjects with related TEAEs Grade 2, GEN1046-related: 4
  Total treated subjects with related TEAEs Grade 3, GEN1046-related: 2
  Total treated subjects with related TEAEs Grade 4, GEN1046-related: 1
  Total treated subjects with related TEAEs Grade 5, GEN1046-related: 0
  Vomiting Grade 1, GEN1046-related: 1
  Vomiting Grade 2, GEN1046-related: 0
  Vomiting Grade 3, GEN1046-related: 0
  Vomiting Grade 4, GEN1046-related: 0
  Vomiting Grade 5, GEN1046-related: 0
[1]
  Hepatotoxicity: No reported drug-related hepatoxicities
  Immune-related toxicities: None reported
Dose limiting toxicity period, in combination with Docetaxel
  Serious adverse events related to GEN1046: No serious adverse events
With Docetaxel 55 mg/m^2 or 75 mg/m^2
  Dose Limiting Toxicity: No Dose Limiting Toxicity reported
